Literature values, collected in publication PMC3906610.

Molecular target: PagP (Escherichia coli) (UniProt P37001)
UniProt P37001, sequence (P37001 26-186): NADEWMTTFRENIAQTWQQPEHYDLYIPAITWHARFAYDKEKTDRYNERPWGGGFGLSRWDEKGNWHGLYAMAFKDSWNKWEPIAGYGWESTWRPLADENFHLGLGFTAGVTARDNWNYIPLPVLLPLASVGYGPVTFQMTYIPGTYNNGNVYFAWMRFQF

In the case of Skp (from UniProt P0AEU7), the Kd is listed as 11.8 nM.
